# In patent US20220403009A1 (IGM BIOSCIENCES, published 2022):
# Where a chain is given by its changes, count along the chain named.
# B1: CR3022 IgA2m2 + J (antibody)
# VH: QMQLVQSGTEVKKPGESLKISCKGSGYGFITYWIGWVRQMPGKGLEWMGIIYPGDSETRYSPSFQGQVTISADKSINTAYLQWSSLKASDTAIYYCAGGSGISTPMDVWGQGTTVTVSS
# VL: not shown
# chain: not shown
# B2: CR3022 IgM + J (antibody)
# VH: B1 VH
# VL: not shown
# chain: not shown
# B3: CR3022 IgA1 + J (antibody)
# VH: B1 VH
# VL: not shown
# chain: not shown
# B4: Ab3 IgM (antibody)
# VH: QVQLVESGGGLVKPGGSLRLSCAASGFTFSDYYMSWIRQAPGKGLEWVSYITYSGSTIYYADSVKGRFTISRDNAKSSLYLQMNSLRAEDTAVYYCARDRGTTMVPFDYWGQGTLVTVSS
# VL: DIQMTQSPSSLSASVGDRVTITCQASQDITNYLNWYQQKPGKAPKLLIYAASNLETGVPSRFSGSGSGTDFTFTISGLQPEDIATYYCQQYDNLPLTFGGGTKVEIK
# chain: not shown
# B5: Ab4 IgM (antibody)
# VH: QVQLVESGGGVVQPGRSLRLSCAASGFTFSNYAMYWVRQAPGKGLEWVAVISYDGSNKYYADSVKGRFTISRDNSKNTLYLQMNSLRTEDTAVYYCASGSDYGDYLLVYWGQGTLVTVSS
# VL: QSALTQPASVSGSPGQSITISCTGTSSDVGGYNYVSWYQQHPGKAPKLMIYDVSKRPSGVSNRFSGSKSGNTASLTISGLQSEDEADYYCNSLTSISTWVFGGGTKLTVL
# chain: not shown
# B6: Ab4 IgG (antibody, V domains shown)
# VH: B5 VH
# VL: B5 VL
# B7: Ab8 IgM (antibody)
# VH: EVQLVESGGGLIQPGGSLRLSCAASGFTVSRNYMNWVRQAPGKGLEWVSVIYSGGSTFYADSVKGRFTISRDNSKNTLYLQMNSLRAEDTAVYYCARDASSYGIDWGQGTLVTVSS
# VL: not shown
# chain: not shown
# B8: Ab8 IgG (antibody, V domains shown)
# VH: B7 VH
# VL: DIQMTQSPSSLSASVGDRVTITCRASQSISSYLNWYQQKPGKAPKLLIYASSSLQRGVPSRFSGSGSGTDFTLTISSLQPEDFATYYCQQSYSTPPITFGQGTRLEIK
# B9: Ab1 IgM (antibody)
# VH: EVQLVESGGGLVQPGGSLRLSCAASGFTVSSNYMSWVRQAPGKGLEWVSVIYSGGSTFYADSVKGRFTISRDNSMNTLFLQMNSLRAEDTAVYYCARVLPMYGDYLDYWGQGTLVTVSS
# VL: not shown
# chain: not shown
# B10: Ab1 IgG (antibody, V domains shown)
# VH: B9 VH
# VL: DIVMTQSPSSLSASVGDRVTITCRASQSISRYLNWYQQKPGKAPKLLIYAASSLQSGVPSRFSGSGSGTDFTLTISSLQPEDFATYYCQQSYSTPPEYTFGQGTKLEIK
# B11: Ab7 IgM (antibody)
# VH: EVQLVESGGGLVQPGGSLRLSCAVSGFTVSSNYMSWVRQAPGKGLEWVSVIYTGGGTYYADSVKGRFTISRDNSKNTLYLQMNTLRAEDTTVYYCARGDGSYYRAFDYWGQGTLVTVSS
# VL: DIQMTQSPSSLSASVGDRVTITCRASQSISNYLNWYHQKPGKAPKLLIYAASSLQSGVPSRFSGSGSGTDFTLTISSLQPEDFATYYCQQSYSPPPTFGPGTKVEIK
# chain: not shown
# B12: Ab7 IgG (antibody, V domains shown)
# VH: B11 VH
# VL: B11 VL
# B13: Ab11 IgM (antibody)
# VH: QVQLVQSGAEVKKPGSSVKVSCKASGGTFSSYAISWVRQAPGQGLEWMGGNIPIFGTANYAQKFQGRVTITADESTSTAYMELSSLRSEDTAVYYCARGVGYRGVIPLNWFDPWGQGTVVTVSS
# VL: EIVMTQSPATLSVSPGERATLSCRASQSVSSDLAWYQHKPGQAPRLLIYGASTRATGIPVRFSGSGSGTEFTLTISSLQSEDFAVYYCQQYNNWPPFTFGGGTKVEIK
# chain: not shown
# B14: Ab11 IgG (antibody, V domains shown)
# VH: B13 VH
# VL: B13 VL
# B15: Ab12 IgG (antibody, V domains shown)
# VH: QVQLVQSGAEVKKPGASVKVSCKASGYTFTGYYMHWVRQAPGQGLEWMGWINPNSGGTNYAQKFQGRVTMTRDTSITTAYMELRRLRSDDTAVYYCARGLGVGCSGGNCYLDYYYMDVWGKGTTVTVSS
# VL: B5 VL with S82A, A86G, N91S, L93Y, I96S
# B16: Ab12 IgM (antibody)
# VH: not shown
# VL: B5 VL with S82A, A86G, N91S, L93Y, I96S
# chain: not shown
# B17: Ab10 IgM (antibody)
# VH: QITLKESGPTLVKPTQTLTLTCTFSGFSLSTSGVGVGWIRQPPGKALEWLALIYWDDDKRYSPSLKSRLTITKDTSKNQVVLTMTNMDPVDTATYYCAHHKIERIFDYWGQGTLVTVSS
# VL: QSALAQPASVSGSPGQSITISCTGTSSDVGAYNYVSWYQQHPGKAPKLMIYDVSKRPSGVSNRFSGSKSGNTASLTISGLQAEDEADYYCSSYTTSSTVFGGGTKLTVL
# chain: not shown
# B18: Ab10 IgG (antibody, V domains shown)
# VH: B17 VH
# VL: B17 VL
# B19: Ab3 IgG (antibody, V domains shown)
# VH: B4 VH
# VL: B4 VL
# Target: T1, SARS-CoV-2 spike protein on pseudovirus (SARS-CoV-2, UniProt P0DTC2 13-1273)
# Assay: cell-based or functional assay
row,Binder,"IC50, SARS-CoV-2 pseudovirus neutralization [µg/mL]"
1,B1,> 100000
2,B2,> 100000
3,B3,> 100000

# Target: SARS-CoV-1 spike protein on HIV-based pseudovirus (SARS-CoV, UniProt P59594 14-1255)
# Assay: cell-based or functional assay
row,Binder,"IC50, SARS-CoV-1 pseudovirus neutralization [µg/mL]"
1,B1,2.3
2,B2,0.47
3,B3,1.9

# Target: T2, SARS-CoV-2 spike protein on live SARS-CoV-2 virus (SARS-CoV-2, UniProt P0DTC2 13-1273)
# Assay: cell-based or functional assay
Binder,"IgM IC50, SARS-CoV-2 live virus microneutralization [µg/mL]",IgM Fold Improvement Over IgG1 [fold],"IgG IC50, SARS-CoV-2 live virus microneutralization [µg/mL]"
B4,0.0038,–,–
B5,0.0031,59,–
B6,–,–,0.18
B7,0.028,3.3,–
B8,–,–,0.093
B9,0.013,10,–
B10,–,–,0.13
B11,0.0016,19,–
B12,–,–,0.03

# Target: T2, SARS-CoV-2 spike protein on live …
# Assay: cell-based or functional assay
# Remark: another data set of the same source
Binder,IgM Fold Improvement Over IgG1 [fold],"IgM IC50, SARS-CoV-2 live virus microneutralization [µg/mL]","IgG IC50, SARS-CoV-2 live virus microneutralization [µg/mL]"
B13,> 870,0.057,–
B14,–,–,> 50
B15,–,–,2.7
B16,330,0.0081,–
B17,390,0.0012,–
B18,–,–,0.47

# Target: recombinant SARS-CoV-2 spike (S) protein trimer (SARS-CoV-2, UniProt P0DTC2 13-1213)
# Assay: not given
row,Binder,EC50 (read off the curve) [nM]
1,B17,~0.3
2,B18,~1

# Target: T1, SARS-CoV-2 spike protein on pseudovirus
# Assay: cell-based or functional assay
# Remark: another data set of the same source
Binder,IgM Fold Improvement Over IgG1 [fold],"IgM IC50, SARS-CoV-2 pseudovirus neutralization [ng/mL]","IgG IC50, SARS-CoV-2 pseudovirus neutralization [µg/mL]"
B13,86,3.7,–
B14,–,–,0.32
B4,–,0.11,–
B19,–,–,0.00057
B5,31,0.058,–
B15,–,–,0.077
B6,–,–,0.0018
B16,180,0.42,–
B17,64,0.092,–
B18,–,–,0.0059
B7,–,2.7,–
B8,–,–,0.0019
B9,67,0.15,–
B10,–,–,0.01
B11,8.8,0.042,–
B12,–,–,0.00037
